In patent US20240199758A1, “METHOD FOR ALLOWING IMMUNE CELLS INFILTRATION IN TUMORS” (Alethia Biotherapeutics Inc., priority 2021, published 2024):
Entries after “also recorded” stand apart in the source; their conditions may differ.

Legend:
[1] = system: frozen tissues from Rhesus monkey; assay: Tissue cross-reactivity study, Rhesus monkey tissues; assay type: binding; settings: Rhesus monkey tissue panel, 2 and 10 μg/mL
Procedure: In addition, a tissue cross-reactivity study was conducted to determine the potential cross-reactivity of AB-16B5 with frozen tissues from human, Rhesus monkey, and Sprague-Dawley rat tissues.

[2] = system: vimentin; assay: Phase I study: immunohistochemistry on paired tumor biopsies, vimentin; assay type: in vivo, human; settings: Subject 007, advanced gastric cancer
Procedure: (§1) Immunohistochemistry studies were conducted on paired tumor biopsies to determine if the treatment with AB-16B5 was associated with a reacquisition of an epithelial phenotype.

[3] = system: tumor biopsies; assay: Phase I study: necrosis in paired tumor biopsies; assay type: in vivo, human
Procedure: (§2) Tumor biopsies were collected during the standard dose escalation to investigate the presence of AB-16B5 within the tumor. A total of 4 pre-treatment and 5 post-treatment tumor biopsies were suitable for analysis. These post-treatment tumor biopsies were collected following dosing on Cycle 2 Day 15 (between Cycle 2 Day 15 and Cycle 2 Day 18). The biopsy sites were liver (n=2), lymph node (n=2), bladder, skin and vulva.
as §1

[4] = Phase I study AB-16B5-101: plasma pharmacokinetics (non-compartmental analysis); assay type: in vivo, human; settings: for AUC 0-t / Cmax / Thalf: mean; for AUC 0-t / Cmax / Thalf / Tmax: plasma; for Tmax: median;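 for AUC 0-t: ng·h/mL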
Source text: Plasma PK parameters for AB-16B5 were derived from the concentration-time profiles following the first dose of Cycle 1 and the first dose of Cycle 2 using a non-compartmental analysis (NCA) with Phoenix WinNonlin.

[5] = Non-clinical pharmacokinetics, single and repeat-dose studies in monkeys; assay type: in vivo, Rhesus monkeys
Source text: (§3) There was an approximate 70% increase in systemic exposure following repeated dosing from Day 1 to Day 26 which is consistent with the elimination half-life of AB-16B5 and the dosing intervals. […] The sCLU concentrations were generally back to their baseline levels after 3 to 5 days. The concurrent decrease in sCLU concentrations immediately following dosing with AB-16B5 is consistent with an antigen-sink phenomenon.

[6] = system: E-cadherin; assay: Phase I study: immunohistochemistry on paired tumor biopsies, E-cadherin; assay type: in vivo, human
Procedure: as §1

[7] = Non-clinical toxicity, weekly administration in rats; assay type: in vivo, Sprague-Dawley rats
Source text: This finding most likely reflects a slight antigenic stimulation by AB-16B5 in these 2 regional lymph nodes.

[8] = molecular target: T1, sCLU (Macaca mulatta, UniProt F6S885); assay: sCLU serum concentrations after single dose administration; assay type: in vivo; settings: Rhesus monkeys
T1 construct: from tissue; host or cells: serum of Rhesus monkeys (in vivo)
Source text: as §3

[9] = system: CA 15-3, CA-125, CA 19-9, CEA, LDH and PSA; assay: Phase I study: circulating tumor biomarkers; assay type: in vivo, human
Procedure: Several well-established circulating biomarkers were evaluated to monitor the response to therapy. They included CA 15-3, CA-125, CA 19-9, CEA, LDH and PSA.

[10] = Phase I study: detection of AB-16B5 in tumor biopsies; assay type: in vivo, human; settings: for Detection of AB-16B5 in Post-Treatment Biopsy: after Cycle 2 Day 15
Source text: as §2

[11] = system: advanced solid malignancy; assay: Phase I study AB-16B5-101: tumor response (RECIST) and best overall response; assay type: in vivo, human
[12] = Subject 012, Breast, biopsy site Skin
[13] = Subject 013, Prostate, biopsy site Bladder
[14] = Subject 001, Pancreatic, 1.5 mg/kg, 2 total cycles
[15] = Subject 002, Endometrium, 3.0 mg/kg, 4 total cycles
[16] = Subject 003, Soft Tissue Sarcoma, 6.0 mg/kg, 2 total cycles
[17] = Subject 005, Prostate, 6.0 mg/kg, 2 total cycles
[18] = Subject 010, Colorectal, 12.0 mg/kg, 4 total cycles
[19] = Subject 012, Breast, 12.0 mg/kg, 2 total cycles
[20] = Subject 013, Prostate, 12.0 mg/kg, 2 total cycles
[21] = Subject 014, Vulvar Melanoma, 12.0 mg/kg, 2 total cycles

T1 sequence (F6S885 22-448): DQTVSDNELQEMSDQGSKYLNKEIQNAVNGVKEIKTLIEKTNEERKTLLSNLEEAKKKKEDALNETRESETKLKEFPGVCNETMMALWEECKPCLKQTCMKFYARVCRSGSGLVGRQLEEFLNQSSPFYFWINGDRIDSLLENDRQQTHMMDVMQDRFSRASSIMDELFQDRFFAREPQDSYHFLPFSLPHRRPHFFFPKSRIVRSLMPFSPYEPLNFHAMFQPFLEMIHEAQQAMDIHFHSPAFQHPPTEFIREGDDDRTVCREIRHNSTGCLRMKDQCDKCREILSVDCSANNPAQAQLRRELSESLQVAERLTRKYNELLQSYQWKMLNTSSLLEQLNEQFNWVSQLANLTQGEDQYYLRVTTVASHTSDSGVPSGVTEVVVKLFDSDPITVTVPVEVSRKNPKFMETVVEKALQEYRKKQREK

## AB-16B5: humanized IgG2 monoclonal antibody targeting sCLU for the inhibition of cancer-associated EMT; light chain SEQ ID NO:11, heavy chain SEQ ID NO:12
[1]
  AB-16B5 staining of tissue elements: observed in a number of tissue elements
  membrane staining: no membrane staining was observed
[2]
  vimentin expression after treatment: loss of vimentin expression
[3]; Subject 006, Breast, biopsy site Skin (pre-treatment 0%)
  Necrosis Post-Treatment: 10%
[3]; Subject 007, Gastric, biopsy site Gastric (pre-treatment 0%)
  Necrosis Post-Treatment: 0%
[3]; Subject 012, Breast, biopsy site Skin (pre-treatment 0%)
  Necrosis Post-Treatment: 5%
[3]; Subject 013, Prostate, biopsy site Bladder (pre-treatment 0%)
  Necrosis Post-Treatment: 10%
[4]; Cycle 1, 1.5 mg/kg (N = 1)
  AUC 0-t: 230,321 ng * h/mL
  Cmax: 17,958 ng/mL
  Thalf: 9.35 h
  Tmax: 1.17 h
[4]; Cycle 1, 3.0 mg/kg (N = 1)
  AUC 0-t: 645,602 ng * h/mL
  Cmax: 50,736 ng/mL
  Thalf: 7.39 h
  Tmax: 1.08 h
[4]; Cycle 1, 6.0 mg/kg (N = 3)
  AUC 0-t: 1,357,773 ng * h/mL
  Cmax: 117,663 ng/mL
  Thalf: 6.99 h
  Tmax: 1.00 h
[4]; Cycle 1, 9.0 mg/kg (N = 3)
  AUC 0-t: 2,083,091 ng * h/mL
  Cmax: 162,103 ng/mL
  Thalf: 10.78 h
  Tmax: 2.00 h
[4]; Cycle 1, 12.0 mg/kg (N = 7)
  AUC 0-t: 4,045,786 ng * h/mL
  Cmax: 256,977 ng/mL
  Thalf: 11.99 h
  Tmax: 1.12 h
[4]; Cycle 1, dose range of 3.0 to 12.0 mg/kg
  increase of mean Cmax and AUC0-t with the dose: dose proportional
[4]; Cycle 2, 1.5 mg/kg (N = 1)
  AUC 0-t: 188,584 ng * h/mL
  Cmax: 15,662 ng/mL
  Thalf: 7.97 h
  Tmax: 1.00 h
[4]; Cycle 2, 3.0 mg/kg (N = 1)
  AUC 0-t: 688,934 ng * h/mL
  Cmax: 61,466 ng/mL
  Thalf: 6.82 h
  Tmax: 1.05 h
[4]; Cycle 2, 6.0 mg/kg (N = 3)
  AUC 0-t: 1,351,156 ng * h/mL
  Cmax: 120,466 ng/mL
  Thalf: 7.70 h
  Tmax: 1.03 h
[4]; Cycle 2, 9.0 mg/kg (N = 3)
  AUC 0-t: 2,459,988 ng * h/mL
  Cmax: 163,840 ng/mL
  Thalf: 13.75 h
  Tmax: 1.08 h
[4]; Cycle 2, 12.0 mg/kg (N = 7)
  AUC 0-t: 4,147,243 ng * h/mL
  Cmax: 230,268 ng/mL
  Thalf: 21.04 h
  Tmax: 1.04 h
[4]; Cycle 2, dose range of 3.0 to 12.0 mg/kg
  increase of mean Cmax and AUC0-t with the dose: dose proportional
[4]; across all dose levels
  systemic exposure versus dose: increased in a dose proportional manner
[4]; between Cycle 1 and Cycle 2
  accumulation of AB-16B5: No significant accumulation
[5]; monkeys
  systemic exposure versus dose: increased with increasing dose levels in a generally greater than dose proportional manner
[5]; monkeys, infusion, single and repeat-dose
  peak serum AB-16B5 concentrations: reached shortly after the start of infusion
[5]; monkeys, repeated dosing
  systemic exposure once weekly versus twice weekly: no notable differences in systemic exposure
[5]; repeated dosing
  accumulation for AUC0-72: a lower extent of accumulation was observed
  drug accumulation in terms of Cmax: no evidence of drug accumulation
[6]; Subject 006, Breast, biopsy site Skin
  E-cadherin Expression in Post-Treatment: Increase
[6]; Subject 007, Gastric, biopsy site Gastric
  E-cadherin Expression in Post-Treatment: Increase
[6]; [12]
  E-cadherin Expression in Post-Treatment: Decrease
[6]; [13]
  E-cadherin Expression in Post-Treatment: No change
[6]; paired tumor biopsies
  patients with increased E-cadherin expression after treatment: 2 pts
[7]; rat, in vivo
  incidence of minimal lymphoid hypercellularity, mandibular lymph node: 1/20
  incidence of minimal lymphoid hypercellularity, mesenteric lymph node: 2/20
  reversibility of lymphoid hypercellularity: complete reversibility
  treatment-related clinical signs, changes in body weight, food consumption, ophthalmology, clinical pathology, organ weights: did not result in any treatment-related clinical signs
  treatment-related macroscopic changes: no treatment-related macroscopic changes
[7]; rats, weekly administration
  No Observable Adverse Effect Level (NOAEL): 100 mg/kg/dose
[8]
  sCLU serum concentrations following dosing: decreased significantly
[9]; circulating
  level of CEA: remained stable or decreased in few patients
[9]; circulating CA 15-3, CA-125, CA 19-9, CEA, LDH, PSA, correlated with disease progression
  tumor biomarker levels: increased over time
[10]; 5 post-treatment tumor biopsies
  presence of AB-16B5 in post-treatment tumor biopsies: confirmed in all post-treatment tumor biopsies analyzed; also recorded: confirmed in all 5 pts
[10]; Subject 009, Lung, biopsy site Liver
  Detection of AB-16B5 in Post-Treatment Biopsy: Positive
[10]; Subject 010, Colorectal, biopsy site Liver
  Detection of AB-16B5 in Post-Treatment Biopsy: Positive
[10]; [12]
  Detection of AB-16B5 in Post-Treatment Biopsy: Positive
[10]; [13]
  Detection of AB-16B5 in Post-Treatment Biopsy: Positive
[10]; Subject 015, Ovarian, biopsy site Lymph node
  Detection of AB-16B5 in Post-Treatment Biopsy: Positive
[11]; RECIST-evaluable population
  subjects with best overall response progressive disease (PD): 43%
[11]; [14]
  Best Overall Response: PD (progressive disease (PD))
  Tumor Response at Last Assessment: Non-Target Lesions: PD (New
  Tumor Response at Last Assessment: Target Lesions: PD (progressive disease (PD))
[11]; [15]
  Tumor Response at Last Assessment: Non-Target Lesions: Non-CR/
  Tumor Response at Last Assessment: Target Lesions: PD (progressive disease (PD))
[11]; [16]
  Best Overall Response: PD (progressive disease (PD))
  Tumor Response at Last Assessment: Non-Target Lesions: PD (New
[11]; Subject 004, Thyroid, 6.0 mg/kg, 17 total cycles
  Tumor Response at Last Assessment: Non-Target Lesions: Non-CR/
[11]; [17]
  Best Overall Response: PD (progressive disease (PD))
  Tumor Response at Last Assessment: Non-Target Lesions: Non-CR/
  Tumor Response at Last Assessment: Target Lesions: PD (progressive disease (PD))
[11]; Subject 006, Breast, 9.0 mg/kg, 3 total cycles
  Tumor Response at Last Assessment: Non-Target Lesions: Non-CR/
[11]; Subject 007, Gastric, 9.0 mg/kg, 8 total cycles
  Tumor Response at Last Assessment: Non-Target Lesions: PD (New
[11]; Subject 008, Thyroid, 9.0 mg/kg, 4 total cycles
  Tumor Response at Last Assessment: Non-Target Lesions: PD (New
[11]; Subject 009, Lung, 12.0 mg/kg, 6 total cycles
  Tumor Response at Last Assessment: Non-Target Lesions: PD (New
[11]; [18]
  Tumor Response at Last Assessment: Non-Target Lesions: PD (New
  Tumor Response at Last Assessment: Target Lesions: PD (progressive disease (PD))
[11]; [19]
  Best Overall Response: PD (progressive disease (PD))
  Tumor Response at Last Assessment: Non-Target Lesions: PD (progressive disease (PD))
[11]; [20]
  Best Overall Response: PD (progressive disease (PD))
  Tumor Response at Last Assessment: Non-Target Lesions: PD (New
[11]; [21]
  Best Overall Response: PD (progressive disease (PD))
  Tumor Response at Last Assessment: Non-Target Lesions: PD (New
[11]; Subject 015, Ovarian Cancer, 12.0 mg/kg, 4 total cycles
  Tumor Response at Last Assessment: Non-Target Lesions: PD (New
[11]; patient with advanced gastric cancer
  time on treatment with stable disease (SD) with clinical benefit: 24 weeks
[11]; patient with follicular thyroid cancer
  duration of SD: ~1 year
